Source: US20190185550A1 (HEFEI LIFEON PHARMACEUTICAL, published 2019)

B1: antibody L19 (antibody, V domains shown)
VH: EVQLLESGGGLVQPGGSLRLSCAASGFTFSSFSMSWVRQAPGKGLEWVSSISGSSGTTYYADSVKGRFTISRDNSKNTLYLQMNSLRAEDTAVYYCAKPFPYFDYWGQGTLVTVSS
VL: EIVLTQSPGTLSLSPGERATLSCRASQSVSSSYLAWYQQKPGQAPRLLIYYASSRATGIPDRFSGSGSGTDFTLTISRLEPEDFAVYYCQQTGRIPPTFGQGTKVEIK
B2: antibody B5 (humanized single-chain antibody against the ED-B domain, expressed as a fusion with the Fc of human IgG1) (Fc fusion)
scFv: EVQLLESGGGLVQPGGSLRLSCAASGFTFSSYAMSWVRQAPGKGLEWVSRISPSGSSTYYADSVKGRFTISRDNSKNTLYLQMNSLRAEDTAVYYCARHTAPLFDYWGQGTLVTVSSGGGGSGGGGSGGGGSSEIVLTQSPGTLSLSPGERATLSCRASQSVSSSYLAWYQQKPGQAPRLLIYKASNLATGIPDRFSGSGSGTDFTLTISRLEPEDFAVYYCQQGRHTPPTFGQGTKVEIK
notes: also called B5-IgG1Fc; single-chain antibody B5; not shown: Fc fragment of the constant region of human IgG1, fused in frame after the scFv (pCI-neo vector); limits and junction no

Columns and labels:
[1] = molecular target: T1, recombinant ED-B domain of human fibronectin with six histidine tags at the carboxyl terminal (human, UniProt P02751 1266-1356); assay: ELISA, Scatchard assay method (Beatty), coated ED-B
T1 construct: domain: ED-B; also called ED-B antigen; independent ED-B domain
Procedure: The Scatchard assay method (Beatty, Beatty et al. 1987) is used for the affinity determination. 0.1 μg/μl ED-B antigen is diluted according to four concentration gradients of 1:1, 1:2, 1:4 and 1:8, enveloped in the ELISA plate, stored overnight at 4° C., and then blocked with 4% skimmed milk. The single-chain antibody diluted according to the concentration gradient of 1:3 is added with the original concentration of the antibody being 10 μg/ml. The antibody reacts under a room temperature for 1 hr, then reacts for 1 hr under the addition of a horseradish peroxidase-labeled rabbit-anti-human IgG antibody, and is stained by adding tetramethyl benzidine (TMB). When an appropriate color depth is reached, the staining is terminated by using 2M H₂SO₄, and the OD450 optical absorption value is determined.

[2] = molecular target: T1, recombinant ED-B domain of human …; assay: SPR, BIAcore3000, ED-B amine-coupled on the chip
[3] = molecular target: FN(789), recombinant fibronectin fragment of domains 7, 8 and 9 without the ED-B domain, with 6xHis tags (human, UniProt P02751-1 1173-1446, limits assumed); assay: ELISA on coated antigen, antibody B5 as primary antibody, HRP-labeled rabbit anti-human IgG as secondary antibody, OD450
Procedure: The plasmid is expressed in E. coli and then purified through a Ni-chelating column. The aforementioned three proteins are used as antigens and are blocked with milk. Then an ELISA detection test is conducted by using the antibody B5 as a primary antibody and using the horseradish peroxidase-labeled rabbit-anti-human IgG antibody as the secondary antibody, with the test results being shown in FIG. 2.

T1 sequence (P02751 other isoform, or with tags, fused parts or gaps limits assumed): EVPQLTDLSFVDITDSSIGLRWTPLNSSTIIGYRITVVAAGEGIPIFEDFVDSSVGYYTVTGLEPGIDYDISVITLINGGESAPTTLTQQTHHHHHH
Chain of FN(789), recombinant fibronectin fragment of domains 7, 8 and 9 without the ED-B domain, with 6xHis tags (P02751 other isoform, or with tags, fused parts or gaps limits assumed): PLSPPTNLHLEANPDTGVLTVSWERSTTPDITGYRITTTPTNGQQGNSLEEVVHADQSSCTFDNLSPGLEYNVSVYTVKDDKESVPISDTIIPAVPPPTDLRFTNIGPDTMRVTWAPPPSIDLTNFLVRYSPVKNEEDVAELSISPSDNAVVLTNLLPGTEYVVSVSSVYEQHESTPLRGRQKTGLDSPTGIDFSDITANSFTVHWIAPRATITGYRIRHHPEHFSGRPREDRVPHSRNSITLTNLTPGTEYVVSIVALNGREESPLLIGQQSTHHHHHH

Binder | Kd [1] [nM] | Kd [2] [nM] | binding result [3]
B1 | 6 | 0.4 | 
B2 | 1.8 |  | no binding
